In the DeepSol protein solubility set:

Test: soluble on expression in E. coli; label from the status in PepcDB or PDB records

| Sequence | soluble on expression in E. coli |
| --- | --- |
| MGHHHHHHSHAKGKERQWLRHQATGELDDAKIIDGLTGEKAIYKRRGELEPQLGSPQQKPKRLRLVVDVSGSMYRFNRMDGRLERTMEAVCMVMEAFENYEEKFQYDIVGHSGDGYNIGLVPMNKIPKDNKQRLEILKTMHAHSQFCMSGDHTLEGTEHAIKEIVKEEADEYFVIVLSDANLSRYGIHPAKFAQILTRDPQVNAFAIFIGSLGDQATRLQRTLPAGRSFVAMDTKDIPQILQQIFTSTMLSSV | not soluble |
| MSLTVMSIQDNLTINEKKVLLALEELRSAVPDKLEEKSGLQIDAAMQAAFMLQEKELASVSEKVLERYSLTKEGEEYKKTGLPERQIIDALKNPVSLEELRSCFSPQTVGIATGWLVKKGWAKVENGIMVPSGEASEGKDEKALSAFAGKAKTLEELGADEGTVKDLLKRKLVVKHEEKFRTVSITDAGSELASQGLVLEEEIAQLTPELLKSGAWKEKKFRPYRLDITPKPLYGTKIHPYRRLIEQMRQIFLEMGFTEIKGGIIQSSFWNFDALFQPQDHPARDMQDTFHLGSTCQIPAEYSGKVAAMHENGGDIDSCGWGGIWDRELAGRNVLRTHTTSVTIKYLADNPEPPVKAFCIDRAYRRETIDPTHTPEFEQLEGVVMDKDMSFADLLGLLAEFYHRMGFEEVRFRPGYFPYTEPSVEPEVYVDGLGWVELGGAGVFRKEVTEPLGIKAPVLAWGLGVSRLAMLKLGLKDLRLLYQSDIDWLRKSEVCKEGHHHHHH | soluble |
| GMGILSGNPQDEPLHYGEVFSTWTYLSTNNGLINGYRSFINHTGDEDLKNLIDEAIQAMQDENHQLEELLRSNGVGLPPAPPDRPAARLDDIPVGARFNDPEISATISMDVAKGLVTCSQIIGQSIREDVALMFSQFHMAKVQFGGKMLKLNKNKGWLIPPPLHSDRPIKE | soluble |
| MLDKLGGIAVQPEALTWLLTPCRFKAELLTRIENAKTSIYIAALYLEDDEAGREILQVLMTAKANNPALDIKVLVDFHRARRGLIGHKGDSGNYLMYRKVMAEAKHPIEIMGVPVKSREFMGVLHLKGFVIDDAVIYSGASLNNIYLQQNDKYRFDRYHVIESAELARSMRAMIQRYIIADPAVTSLTQDAQQEVLPPKTDVRSFKLRLSQAQYEFNETRSGNRVTPLLGLGRKHNLLNKTVIAMVEESKDRLFICTPYFNPPYILVRALAKHLRKGKRIDIVVGDKTANDFYIPPEQDFSTIGALPYLYEQSLRKFAKRQQWAIDNGQLNIHLWKHGINSYHLKGISTDGRKHLITGSNLNPRAWALDLENGILIHDETGSWKAQFEAEQAHILEHTQRLYHYSQVDTLQSYPDPVKKIMNRIRRLKADFLLRRILLEHHHHHH | soluble |
| MSESRLLTLRDYIRWAVSRFHAAGLFFGHGTDNAWDEARHLVLGSLHLPWEISDSYLDCRLEDDERAELAEILRRRIEERIPAAYLLGEAWFCGIPFSVDERVLVPRSPIAELIEQRFAPWLPAEPARILDLCTGSGCIGIACAYAFEQAEVVLADLSFDALEVANVNIERHDLGERVYTVQGDGFAGLPGQRFDLIVSNPPYVDAEDFADMPAEFHHEPELGLACGDDGLDLVRRMLAEAADHLSEKGLLIVEVGNSEVHVQALYPEVDFTWLEFEHGGHGVFMLSAAQCREHRELFRSRLEK | not soluble |
| MGSDKIHHHHHHESSKSGYQTTGENNSSDYQGIIEDGEYKTSKSRGVGISQNSDNLLNLKSFEAGLTTISKDHFSTKSYIFQEGQYLNKATIQDWLGRKSSSNPEGLNPSDNGKKEANKRNPIYVQQIEEQDYMKQNNGKLELAGMTIGIGMNQKDYYQKEQYGATYSTTISKEKRIEEGKIAAKKVLARVRQKVGNNVPIVIAMFAQAPNDSLVGGYFYSYTVSKSGTDIGSWTETNIKSYVLPATEDNKLPNDNDSTSFDNFQKEVKNFFPNISNVTGQGQYKDKTLQGLHITITTQFYSETEITSFTQYVAQAAKSYLPSGIPVDIKINGSDGETQSFVSTTGGNGGYYTHVFGSY | not soluble |
| MNLNYTIASQVNPHVVPFMQSDASRYRKDILSWPQRILRRQGKVISLGIMDFTRERLGNVPPVRRLLDHGYGIVGQRYYGDVNIIAPFNLRQYAYMLQNPRPHLFKLLQQQGERATLEHHHHHH | soluble |
| MGSDKIHHHHHHMLEGKVAVVTGGGQGIGAAIAQLFAENGMKVVIAEIDEEAGVEREEMLRERGLDVTFVKTDVADENSVKNMVRKTVEIYGGVDVLVNNAAVMSVKSIFERPLEEWERVIRVNLTGPYICSRYCAEEMIKRGGGVIINIASTRAFQSEPDTEPYSASKGGLVALTHSLAVSLSRYHIRVVSISPGWIETSEWKKKSLRKKPDLRPIDHEQHPAGRVGNPLDIAHLCVFLADDEKAGFITGTNFIVDGGMTVKMIYEE | not soluble |
| MGSDKIHHHHHHMKRAYAMPLTNPSFPPGPYRFFDREYIIITYRTTREALEAVVPAPLEIDEPLVKYEFIRMPDSTGFGDYTETGQVIPVKYKGQHGGYVHSMYLDDDAPIAGGRELWGFPKKLANPKIVHEGEVIVGTLHYGSVLCATGTMGYKHREADHDSVLASLAAPNFLIKIIPHVDGGPRICELVRYYLTDITLKEAWTAPAALDLRPHVMADVAKLPVLDIISAVHFKADLTLGLGEVVHDYLSDHNRLATSTTQPEKIRA | not soluble |
| MLRLATPLRSGLLSSAIRRHSACCGGEHKMSEAELKMSKLLTEGIDGCTRVEVHDVSNGCGSMFDVVVEAAGFKGKSKVAQHKQVTSILREQIKDMHGLTIKTKAA | not soluble |
| MSLNRYSVHPEQVKRFTTEELRSHFLMDSLFTENKLTMYYSHEDRVVIGGAAPGQSELKLDAGDFLKTDFFLERREIGIINVGQPGAVRVGDDEYVLQTKDFLYIGMGNQDVSFSSLNGEKAKFYFVSACAHKSYPTQKAALSELTPDRLGDDAASNVRSLYKVIHQDGIKSCQLMMGITMLDQNNNWNTMPAHVHDRRMEAYLYLDLEKDSKVFHFMGQPDETRHLVVGNEQAVLSPAWSIHSGAGTSNYSFVWAMAGENYTFTDMDLIPMDGLKEGHHHHHH | soluble |
| MSLELTRYEIIKILMEYVTDEIVVCNIGIPSKELFKINDREKNFYMLGSMGLSSSIGHGLALSVNEKVIAIDGDGSVLMNMGSLATIGKTTPKDFLLLIVDNCAYGSTGNQETHSTCTDLYQVSKACGIDSIGVFNEEQLRDAVKLALSESGTKVIVAKARPHNENVPNINLVPTEIKHRFMNAIKKEGHHHHHH | not soluble |
| EVKLEESGGGLVQPGGSMKLSCATSGFTFSDAWMDWVRQSPEKGLEWVAEIRNKANNHATYYAESVKGRFTISRDDSKRRVYLQMNTLRAEDTGIYYCTGIYYHYPWFAYWGQGTLVTVSAEP | soluble |
| MRATTIEEPARQVPLYGEYEVVVLGGGPAGIIAAASAARAGRKTLLIERYGFLGGMGTAAGVTNFCGLHGNVYGQAHRLVQGLASELLARIDLLNGLNTPHLILGKVFAQAYDTAAYKIAADELLASHKVNILFHALGAGVVMGDNSRIDALMVETKAGRQAVRSEIFIDCSGDGDLAVWAGAPFEVGDEHGHPLYPSMMLRLNNIDPEKAGEAWRTIPQLMEKALAAGTHKFPRKSAIVRPQKSGIEWRVNFTQVAREDGHAINGIEPDDLTRGEIEGRRQALAAFEFLRTVPGFEKSYIVDLPPQLGIRETRRIKGGYQLSGEDVLGCASFEDSIGVNGWPIEAHVPGDVIFTFPPIPESRGYNELPYRMLVPEGVDNLLVAGRCASMTHEGQSAARVSGACFVMGEAAGSAAALALSGNRIPRDIPIEKLQETLKQQGAFIGRDQPVPEGLLEHHHHHH | not soluble |
| MSDLDTPTPSPHPVLLNLEQFLPYRLSVLSNRISGNIAKVYGDRYGMAIPEWRVITILALYPGSSASEVSDRTAMDKVAVSRAVARLLERGFIRRETHGDDRRRSMLALSPAGRQVYETVAPLVNEMEQRLMSVFSAEEQQTLERLIDRLAKDGLPRMASKD | soluble |
| MKAKLKQLRRLVESSFPEIENFHEKVDASFEKLENAKSFWSEIYVAHLKVVGDGVKVPESVFIKVPRISENVLRCEDESAVNHLNDVLLYYSKKENLFYKHFEYGSIPNFPFPKVYFTEDINGEATGGIVAENLSEKVFAVEHIPGLKHEQILRLMEALAGLHSFLMKRDDKSYVESFVEGAHGRETFSEGMQNMMFEEALTLENVSPEVFGNDRIRNIKWSFDYSIKNKATADAISAFPGIICHADLNVTNVLWKKDSAKDEISAIIDYQMLFIGSIAFDIIRVLTLGLNREIRRKMTQNYLDHYHKTLTELSNGKAPFSMEELLHQYSLIYPFSSNFSLFGIALYIKMYSDGTLGNPEDKEENCKELIDRALGIVEDIEALKNNYK | not soluble |
